Consider three molecules from patent publication US10752676B2 (UCB Biopharma SPRL, priority 2011, dated 2020).

Data set [1] relates to Clostridium difficile strain ATCC43596. In words: Anti-C. difficile toxin Mab hamster infection study. Format: in vivo, Golden Syrian hamsters. The conditions noted are these: 5 mg/kg twice a day for 5 days (p.o.) on days 1-5. The procedure: The hamster infection study was performed by Ricerca Biosciences LLC, Cleveland, Ohio, USA. The study protocol was approved by the Ricerca IACUC committee. Active and control components (composition and dose) were blinded to Ricerca staff until after completion of the planned 28 day study period.
Golden Syrian male hamsters (weight 82-103 g, 54 days old) were individually housed in HEPA filtered disposable cages and fed Teklad Global Diet 2016 and water ad libitum. After acclimatisation, hamsters were pre-dosed (i.p.) with Mab mixtures or PBS (vehicle control) once a day for each of 4 days: days −3, −2, −1 and 0. Two doses of Mab were investigated: high dose=50 mg/kg each of anti-TcdA and anti-TcdB components and low dose 5 mg/kg each of anti-TcdA and anti-TcdB components.
Hamsters were sensitised (day −1) with 50 mg/kg of Clindamycin phosphate in PBS (s.c.) before being challenged 1 day later (day 0) with 3.4×106 c.f.u. of vegetative cells from strain ATCC43596. […]
Viability checks were performed on animals twice a day, animals found to be in extremis were euthanised and counted as dead. Body weights were determined on each day of dosing, then twice weekly and before euthanising survivors. […] Survival curves were analysed using the P value from the log rank test compared to the Bonferroni corrected threshold of P=0.005. […]

Data set [2] in a line: Estimation of isoelectric point (pI) by capillary IEF. Format: physicochemical. As for the experimental part: Samples were prepared by mixing the following: 30 ul Protein sample at 2 mg/ml, 0.35% Methylcellulose, 4% pH3-10 ampholytes (Pharmalyte), synthetic pI markers (4.65 and 9.77), 1 ul of each stock solution, and HPLC grade water to make up the final volume to 200 ul. The mixture was then analysed using iCE280 IEF analyzer (pre-focusing at 1500V for 1 min followed by focusing at 3000V for 6 mins). The calibrated electropherograms were then integrated using Empower software (from Waters)

A short description of data set [3]: Thermal stability (Tm) measured via Thermofluor assay. Type of data set: physicochemical. The conditions noted are these: PBS pH 7.40. As for the experimental part:
This method uses Sypro orange fluorescent dye to monitor the unfolding process of protein domains. The dye binds to exposed hydrophobic regions that become exposed as a consequence of unfolding which results in a change to the emission spectrum.
The sample (5 ul at 1 mg/ml) is mixed with a 5 ul of a stock solution of Sypro orange (30×) and the volume made up to 50 ul with PBS, pH 7.40.
10 ul aliquots of this solution is applied to wells in a 384 well plate (n=4).
The plate is placed in a 7900HT fast real-time PCR system containing a heating device for accurate temperature control. The temperature is increased from 20° C. to 99° C. (Ramp rate of 1.1° C./min). A CCD device simultaneously monitors the fluorescence changes in the wells. An algorithm is used to process intensity data and take into account multiple transitions.

For data set [4], the target named is TcdB1234 (Clostridioides difficile, UniProt P18177). The conditions noted are these: Purified Mab 3 point titration.
Procedure: (§1) Kinetic constants for the interactions of anti-C. difficile TcdA and TcdB antibodies were determined by surface plasmon resonance conducted on a BIAcore 3000 using CM5 sensor chips. All experiments were performed at 25° C. Affinipure F(ab′)2 fragment goat anti-human IgG, Fc fragment specific (Jackson ImmunoResearch) was immobilised on a CM5 Sensor Chip (GE) via amine coupling chemistry to a capture level of ≈7000 response units (RUs).
(§2) Double referenced background subtracted binding curves were analysed using the BIAevaluation software (version 3.2) following standard procedures. Kinetic parameters were determined from the fitting algorithm
In data set [5] the target is TcdA456 (Clostridioides difficile, UniProt P16154). The conditions noted are these: Purified Mab 5 point titration.
Procedure: as §1, §2

For `CN[C@H](CC(C)C)C(=O)N[C@H]1C(=O)N[C@@H](CC(N)=O)C(=O)N[C@H]2C(=O)N[C@H]3C(=O)N[C@H](C(=O)N[C@H](C(=O)O)c4cc(O)cc(O)c4-c4cc3ccc4O)[C@H](O)c3ccc(c(Cl)c3)Oc3cc2cc(c3O[C@@H]2O[C@H](CO)[C@@H](O)[C@H](O)[C@H]2O[C@H]2C[C@](C)(N)[C@H](O)[C@H](C)O2)Oc2ccc(cc2Cl)[C@H]1O` [vancomycin], the survival entry in data set [1] was “all died on days +10 and +11”.

B1: 1134.g5: anti-toxin B antibody; light chain variable SEQ ID NO: 147, heavy SEQ ID NO: 149 (antibody, V domains shown)
VH: EVQLQESGPGLVKPSETLSLTCTVSGFSLNSYTITWVRQPPGKGLEWIAAISGGGSTYFNSALKSRVTISRDTSKSQVSLKLSSVTAADTAVYYCTRPRWYPRSYFDYWGRGTLVTVS
VL: DVQLTQSPSFLSASVGDRVTITCKASKSISNHLAWYQEKPGKANKLLIHSGSTLQPGTPSRFSGSGSGTEFTLTISSLQPEDFATYYCQQYDEYPYTFGQGTRLEIK
modifications: Antibody variable region for anti-TcdB antibody 1134 (heavy chain); Antibody variable region for anti-TcdB antibody 1134
For the molecule B1, in data set [2], the “measured pI” value was 9.2. For the same molecule, in data set [3], the “Tm(CH2)” value worked out at 69.2 °C and the “Tm(Fab) in PBS” value was 76.4 °C. In addition, in data set [4], the “ka” value was determined as 509000 M⁻¹ s⁻¹ and the “kd” value was 2.45e-05 s⁻¹.

B2: CA995: humanised anti-toxin A IgG1; light chain variable SEQ ID NO: 37, heavy SEQ ID NO: 39 (antibody, V domains shown)
VH: EVQLVESGGGLVQPGGSLRLSCTASGFSLSNYDMIWVRQAPGKGLEYIGFINTGGITYYASWAKGRFTISRDSSTVYLQMNSLRAEDTATYFCARVDDYIGAWGAGLWGQGTLVTVS
VL: DVVMTQSPSTLSASVGDRVTITCQASQSINNYFSWYQQKPGKAPKLLIYGAANLASGVPSRFKGSGSGTEYTLTISSLQPDDFATYSCQNNYGVHIYGAAFGGGTKVEIK
modifications: Antibody variable region for anti-TcdA antibody 995 (heavy chain); Antibody variable region for anti-TcdA antibody 995
As to B2, in data set [2], the “measured pI” value is listed as 8.5. The “Tm(Fab) in PBS” value in data set [3] worked out at 71 °C. In data set [5], the “ka” value worked out at 287000 M⁻¹ s⁻¹ and the “kd” value was determined as 3.42e-05 s⁻¹.
